Experiment [1] concerns the target T1, human full-length B7H3 expressed on MCF-7 cells (human, UniProt Q5ZPR3 29-534).
T1 sequence: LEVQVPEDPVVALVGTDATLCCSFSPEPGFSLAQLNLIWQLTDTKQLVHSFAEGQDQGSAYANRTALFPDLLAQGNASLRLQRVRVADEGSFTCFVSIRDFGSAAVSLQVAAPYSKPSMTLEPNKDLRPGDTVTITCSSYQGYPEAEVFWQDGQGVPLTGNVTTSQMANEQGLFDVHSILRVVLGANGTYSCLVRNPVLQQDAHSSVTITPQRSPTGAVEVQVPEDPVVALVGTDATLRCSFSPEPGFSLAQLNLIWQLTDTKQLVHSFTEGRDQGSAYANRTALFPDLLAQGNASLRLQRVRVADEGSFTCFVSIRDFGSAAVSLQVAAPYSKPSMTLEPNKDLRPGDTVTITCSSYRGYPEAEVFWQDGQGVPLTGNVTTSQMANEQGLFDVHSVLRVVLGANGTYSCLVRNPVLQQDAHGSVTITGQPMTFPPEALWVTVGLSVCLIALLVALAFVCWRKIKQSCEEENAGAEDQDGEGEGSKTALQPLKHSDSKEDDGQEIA
As to the kind of experiment: cell-based or functional assay.

The target of experiment [2] is T2, human 4IgB7H3 extracellular domain, 6xHis (human, UniProt Q5ZPR3 29-461).
T2 construct: range 29-461; Made in house in Expi293F cells; 47.8 kDa used in the SPR calculation; also called analyte human 4IgB7H3
T2 sequence: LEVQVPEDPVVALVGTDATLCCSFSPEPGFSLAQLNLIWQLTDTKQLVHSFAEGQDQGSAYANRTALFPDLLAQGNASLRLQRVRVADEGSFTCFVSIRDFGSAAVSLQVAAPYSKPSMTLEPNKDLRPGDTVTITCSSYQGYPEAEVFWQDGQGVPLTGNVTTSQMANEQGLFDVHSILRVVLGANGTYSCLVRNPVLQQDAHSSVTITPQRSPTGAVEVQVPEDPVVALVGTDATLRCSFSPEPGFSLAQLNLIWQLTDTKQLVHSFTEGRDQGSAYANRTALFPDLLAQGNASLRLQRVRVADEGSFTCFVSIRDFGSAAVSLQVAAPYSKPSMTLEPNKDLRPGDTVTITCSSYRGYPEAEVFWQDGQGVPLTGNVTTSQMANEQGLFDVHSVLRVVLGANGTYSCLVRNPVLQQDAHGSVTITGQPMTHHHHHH
Briefly: SPR (Biacore 8K), antibody captured on anti-human Fc IgG, human 4IgB7H3 as analyte, 1:1 model. As to the method: The affinity of antibodies for human 4IgB7H3 was determined using surface plasmon resonance (SPR). The affinity of antibodies for human 4IgB7H3 was determined by Biacore 8K. An activator was prepared by mixing 400 mM EDC and 100 mM NHS (GE) immediately prior to injection into the channel. The CMS sensor chip was activated for 420 seconds with the activator. Goat anti-human Fc IgG (30 μg/mL in 10 mM NaAc, pH 4.5) was then injected into the channel at a flow rate of 10 μL/min for 420 seconds. The chip was deactivated by 1 M ethanolamine hydrochloric acid. The antibodies diluted in running buffer (1×HBS-EP+) were injected into the channel at a flow rate of 10 μL/min for 30 seconds. […] Glycine (10 mM, pH 1.5) was injected as regeneration buffer after the dissociation phase.
The sensorgrams for the reference channel and the buffer channel were subtracted from the test sensorgrams. The experimental data were fitted with a 1:1 binding model. The molecular weight of the human 4IgB7H3 used in the calculation was 47.8 kDa.
The experimental data were fitted by a 1:1 binding model bundled with the Biacore 8K evaluation software.
For orientation: In SPR one partner is held on a chip, and binding of the other changes the refractive index at the surface.

In the next experiment the target is T3, Human PD-L1, His Tag (human, UniProt Q9NZQ7 19-238).
T3 construct: Bought protein; also called human PD-L1 protein; ACRO PD1-H5229; not shown: His tag
T3 sequence (Q9NZQ7 19-238 limits assumed): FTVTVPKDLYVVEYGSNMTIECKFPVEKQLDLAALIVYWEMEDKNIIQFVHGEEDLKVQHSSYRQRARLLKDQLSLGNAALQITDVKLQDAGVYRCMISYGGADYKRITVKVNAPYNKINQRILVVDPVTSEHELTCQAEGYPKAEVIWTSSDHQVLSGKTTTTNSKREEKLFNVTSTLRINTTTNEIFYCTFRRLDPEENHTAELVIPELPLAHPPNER
Briefly: ELISA, B7 family protein immobilized on plate, serially diluted antibody. As to the method:
(§1) Human PD-Ll protein (see the table above), human B7-H2 protein, human B7-H3 protein, human B7-H4 protein, human B7-H5 protein, human B7-H6 protein, human B7-1 protein, human B7-2 protein, human PD-L2 protein, human B7-H7 protein, and human BTNL2 protein were separately immobilized on 96-well plates by incubation at 4° C. overnight. The 96-well plates were then blocked by incubation with 1% BSA in PBS at 37° C. for 1 h. After blocking, the 96-well plates were washed 3 times with PBST (PBS containing 0.05% Tween 20). […] After incubation, the 96-well plates were washed 3 times with PBST, incubated with a secondary antibody (see the table above) in binding buffer at 37° C. for 1 h, and then washed again. TMB was added for color development, and the reaction was stopped by 1 M H₂SO₄.

Experiment [3] concerns the target T4, Human B7-2 protein, His Tag (human, UniProt P42081 24-247).
T4 construct: Bought protein; also called ACRO CD6-H5223; not shown: His tag
T4 sequence (looked up): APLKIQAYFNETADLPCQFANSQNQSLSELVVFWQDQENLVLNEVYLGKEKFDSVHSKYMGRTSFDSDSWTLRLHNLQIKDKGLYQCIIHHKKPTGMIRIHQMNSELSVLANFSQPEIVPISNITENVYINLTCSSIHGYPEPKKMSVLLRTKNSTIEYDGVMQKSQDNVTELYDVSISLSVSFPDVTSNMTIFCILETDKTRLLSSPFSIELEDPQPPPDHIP
The description is as above. How it is done:
as §1

In experiment [4] the target is T5, Human PD-L2, His Tag (confirmed by SPR) (human, UniProt Q9BQ51 20-219).
T5 construct: Bought protein; also called human PD-L2 protein; ACRO PD2-H5220; not shown: His tag
T5 sequence (looked up): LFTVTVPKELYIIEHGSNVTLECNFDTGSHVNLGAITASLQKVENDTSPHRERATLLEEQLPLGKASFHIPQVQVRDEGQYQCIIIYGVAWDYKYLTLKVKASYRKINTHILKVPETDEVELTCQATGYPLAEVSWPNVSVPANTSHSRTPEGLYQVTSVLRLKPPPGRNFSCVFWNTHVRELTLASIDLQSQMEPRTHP
The experiment is described as above. How it is done:
as §1

These results are taken from US20240148892A1 (DUALITY BIOLOGICS SUZHOU, published 2024).

B1: W301088-1.145.16-xIgG1KV320 (antibody, V domains shown)
VH: DVQLQESGPGLVKPSQSLSLTCTVTDYSITGDYAWNWIRQFPGNKLEWMGYISYSGSTSYNPSLQSRISITRDTSKNQFFLQLNSVTSEDTATYFCARSLGRRWYFVVWGAGTTVTVSA
VL: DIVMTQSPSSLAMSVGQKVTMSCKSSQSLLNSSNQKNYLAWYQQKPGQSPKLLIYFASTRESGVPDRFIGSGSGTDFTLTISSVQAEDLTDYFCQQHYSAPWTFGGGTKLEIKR
As a reminder, the Kd is a measure of binding affinity in units of concentration. Lower therefore signals higher affinity. The koff is the rate constant with which the complex falls apart. Higher therefore signals a short-lived complex. Usually kon stands for a measure of how fast the partners come together. Low values mean slow association, high ones fast association. On to B1, for which, in experiment [1], the “Antibody internalization EC50 (nM), MCF-7 cells, high-content imaging” value (“Antibody internalization EC50 (nM)” for short) turned out to be 0.51 nM. For the same molecule, in experiment [2], the Kd amounted to 51.5 pM, the koff amounted to 3.39e-05 s⁻¹ and the kon was 657000 M⁻¹ s⁻¹.

B2: W301088-1.145.16-z3-p1-uIgG1KV320 (antibody, V domains shown)
VH: QVQLQESGPGLVKPSQTLSLTCTVTDYSITGDYAWNWIRQHPGKGLEWIGYISYSGSTSYNPSLQSRVTISRDTSKNQFSLKLSSVTAADTAVYFCARSLGRRWYFVVWGQGTTVTVSS
VL: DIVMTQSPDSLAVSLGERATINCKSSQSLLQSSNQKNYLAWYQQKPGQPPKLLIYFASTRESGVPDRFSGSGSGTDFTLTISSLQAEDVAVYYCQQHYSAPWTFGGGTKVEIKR
notes: Humanized, PTM-removed (VL N027dQ) human IgG1 LALA kappa antibody; also called WBP301088; W301088-z3-p1
For B2, the “Antibody internalization EC50 (nM)” value in experiment [1] came to 0.44 nM. In addition, in the experiment with Human PD-L1, His Tag, the binding result is on record as “no binding”. Also, in experiment [3], the binding result was “no binding”. The binding result in experiment [4] is “no binding”. Further, in experiment [2], binding was characterised by a dissociation constant (Kd) of 70.8 pM, the koff came out at 4.65e-05 s⁻¹ and the kon was determined as 657000 M⁻¹ s⁻¹.

B3: Enoblituzumab (MacroGenics) (antibody, V domains shown)
VH: EVQLVESGGGLVQPGGSLRLSCAASGFTFSSFGMHWVRQAPGKGLEWVAYISSDSSAIYYADTVKGRFTISRDNAKNSLYLQMNSLRDEDTAVYYCGRGRENIYYGSRLDYWGQGTTVTVSS
VL: DIQLTQSPSFLSASVGDRVTITCKASQNVDTNVAWYQQKPGKAPKALIYSASYRYSGVPSRFSGSGSGTDFTLTISSLQPEDFATYYCQQYNNYPFTFGQGTKLEIKR
Take B3: in experiment [1], the “Antibody internalization EC50 (nM)” value stood at 1.95 nM. In experiment [2], this molecule showed a Kd of 1020 pM, a koff of 0.000126 s⁻¹ and a kon of 124000 M⁻¹ s⁻¹.
